Patent US6867027B1, “RNA polymerase” (The Institute of Physical and Chemical Research, priority 1997, dated 2005)
Entries after “also recorded” stand apart in the source; their conditions may differ.

How the values were obtained:
[1] = tested on: human thyroid-stimulating hormone (hTSH-β) cDNA PCR product; test: Transcriptional sequencing reaction on PCR product of hTSH-β cDNA (Example 9); assay type: biochemical; conditions: four dye terminators, PCR product template, FIG. 18
Experimental: As the template for PCR, human thyroid-stimulating hormone (hTSH-β) cDNA subcloned into a plasmid derived from BS750 having T7 promoter was used. By using this plasmid […] having hTSH-β with L220 primer (5′-TAACAATTTCACACAGGAAACA-3′ (SEQ ID NO:38)) and 1211 primer (5′-ACGTTGTAAAACGACGGCCAGT-3′ (SEQ ID NO:39)) existing at both sides of the cloning site, PCR reaction was performed in a reaction volume of 20 μl (1 cycle of 94° C. for 2 minutes, 30 cycles of 94° C. for 1 minute, 55° C. for 1 minute, and 72° C. for 1.5 minutes, followed by 72° C. for 5 minutes). The T7 promoter existed in the downstream of 1211 primer of the PCR product obtained from the above PCR reaction.
The transcriptional sequencing reaction was performed by the method of Melton, D. A, [Nucleic Acids Res., 12: 7035-7056 (1984)].
1 μl (about 10 ng) of the above PCR product was used for the sequencing reaction. […]
The dried reaction product was dissolved in 6 μl of formamide/EDTA/Blue dextran loading buffer according to the instruction manual Ver. 1.0 of ABI PRISM 377 DNA Sequencing System available from Perkin-Elmer Japan, and 2 μl of the solution was analyzed by ABI 377 DNA Sequencer and an analysis program (Sequencing Analysis Ver. 3.0) using denatured gel for sequencing analysis which contained 6M urea/4% Long Ranger™ acrylamide solution (FMC) to afford an electropherogram.

[2] = Inhibition of [α-32P]UTP incorporation by 3′-dATP in the transcription reaction (3′-dNTP incorporation rate); assay type: biochemical; conditions: compared with wild type T7 RNA polymerase
Experimental: Ribonucleotide (NTP) and 3′-deoxynucleotide (3′-dNTP) incorporation rates of the mutant T7 RNA polymerase purified in Example 7 were measured as follows.
pBluescript(KS+) plasmid (Stratagene) linearized by reaction with a restriction endonuclease, PvuII, was used as a template for the transcription reaction, and 250 μM each of ATP, CTP, GTP, and UTP, 2 mM of spermidine-(HCl)3, 5 mM of DTT, 40 mM Tris/HCl pH 8.0, 0.1 μl of [α-^32P] UTP (3000 Ci/mmole), and 25 units of the mutant T7 RNA polymerase F644Y/L665P/F667Y were also used for the reaction. For two kinds of reaction mixture (with or without 3′-dATP, final concentration was 100 μM), the reaction was performed at 37° C. for 60 minutes. The whole reaction mixture was spotted on DE81 paper (Whatman), washed three times with phosphate buffer, and dried. The DE81 paper was placed into a scintillation vial, and radioactivity was measured using a scintillation counter (Beckman) for each reaction. Degree of inhibition of the [α-^32P] UTP incorporation was calculated by comparing the values obtained with and without 3′-dATP based on the measured radioactivity. The relative activity obtained from calculated inhibition degree and defined as a relative value to the inhibition degree of the wild type T7 RNA polymerase normalized to 1.000 was shown in Table 1.
The inhibition degree was calculated by using the wild type T7 RNA polymerase, T7 RNA polymerase F644Y, L665P/F667Y obtained in Example 3, mutant T7 RNA polymerase F644Y/L665P, F782Y, F733Y, F646Y or Y639F constructed and purified in the same manner as in Examples 2 and 3 for the reaction instead of the above F644Y/L665P/F667Y mutant, and relative activities are shown in Table 1.
For example, it is meant that the mutant T7 RNA polymerase F644Y/L665P/F667Y is 5.58 times more likely to incorporate 31-dATP in comparison with the wild type enzyme.

B1: F644Y/L665P/F667Y: mutant T7 RNA polymerase introduced with F644Y/L665P/F667Y mutations (protein)
chain: MNTINIAKNDFSDIELAAIPFNTLADHYGERLAREQLALEHESYEMGEARFRKMFERQLKAGEVADNAAAKPLITTLLPKMIARINDWFEEVKAKRGKRPTAFQFLQEIKPEAVAYITIKTTLACLTSADNTTVQAVASAIGRAIEDEARFGRIRDLEAKHFKKNVEEQLNKRVGHVYKKAFMQVVEADMLSKGLLGGEAWSSWHKEDSIHVGVRCIEMLIESTGMVSLHRQNAGVVGQDSETIELAPEYAEAIATRAGALAGISPMFQPCVVPPKPWTGITGGGYWANGRRPLALVRTHSKKALMRYEDVYMPEVYKAINIAQNTAWKINKKVLAVANVITKWKHCPVEDIPAIEREELPMKPEDIDMNPEALTAWKRAAAAVYRKDKARKSRRISLEFMLEQANKFANHKAIWFPYNMDWRGRVYAVSMFNPQGNDMTKGLLTLAKGKPIGKEGYYWLKIHGANCAGVDKVPFPERIKFIEENHENIMACAKSPLENTWWAEQDSPFCFLAFCFEYAGVQHHGLSYNCSLPLAFDGSCSGIQHFSAMLRDEVGGRAVNLLPSETVQDIYGIVAKKVNEILQADAINGTDNEVVTVTDENTGEISEKVKLGTKALAGQWLAYGVTRSVTKRSVMTLAYGSKEYGFRQQVLEDTIQPAIDSGKGPMYTQPNQAAGYMAKLIWESVSVTVVAAVEAMNWLKSAAKLLAAEVKDKKTGEILRKRCAVHWVTPDGFPVWQEYKKPIQTRLNLMFLGQFRLQPTINTNKDSEIDAHKQESGIAPNFVHSQDGSHLRKTVVWAHEKYGIESFALIHDSFGTIPADAANLFKAVRETMVDTYESCDVLADFYDQFADQLHESQLDKMPALPAKGNLNLRDILESDFAFA
sequencing analysis [1]: Excellent sequencing analysis was possible | ability for incorporating 3′-dATP, 3′-dGTP, 3′-dCTP, 3′-dUTP and derivatives thereof [2]: the least bias for the 3′-dATP incorporation among the mutant enzymes prepared; also recorded: markedly improved
